B1: CPEB3 Ribozyme (parent)
chain: GGGGGCCACAGCAGAAGCGUUCACGUCGCGGCCCCUGUCAGAUUCUGGUGAAUCUGCGAAUUCUGCUGU

In the data set the parent is B1. The data set can be described thus: self-cleavage, relative activity (ratio to wild type); higher = more cleavage; co-transcriptional.
For the variant U20C U64G, the self-cleavage is 0.104.

As for U20C U64C, the self-cleavage came out at 0.278.

Consider U20C U64A, for which the self-cleavage stood at 0.167.

With U20G U26C, the self-cleavage turned out to be 0.114.

Regarding U20C U44A, the self-cleavage came out at 0.185.

With U21A C54U, the self-cleavage is 0.673.

With U21A C54A, the self-cleavage turned out to be 0.872.

With U21A C54G, the self-cleavage is 0.936.

In the case of U20G A51G, the self-cleavage amounted to 0.193.

In the case of U21A U43G, the self-cleavage was found to be 0.833.

Turning to U21A U43A, the self-cleavage worked out at 0.906.

For U20G G58A, the self-cleavage worked out at 0.251.

As for U20G G58U, the self-cleavage stood at 0.213.

Turning to U20G C22G, the self-cleavage was 0.192.

With U20G C22A, the self-cleavage is 0.249.

As to U20C U36A, the self-cleavage turned out to be 0.125.

U21C A60U: the self-cleavage was determined as 0.391.

With U21C A60G, the self-cleavage worked out at 0.663.

With U20C G28C, the self-cleavage is 0.133.

As to U20C G28A, the self-cleavage worked out at 0.117.

As to U21A C63A, the self-cleavage was determined as 0.795.

Take U21A C63G: the self-cleavage was 0.727.

On to U21A C63U, for which the self-cleavage turned out to be 0.921.

On to U20G A52G, for which the self-cleavage was 0.292.

Take U20G A52U: the self-cleavage was determined as 0.183.

As for U20G A52C, the self-cleavage was found to be 0.148.

U21C G41C: the self-cleavage came to 0.538.

Regarding U21C G41U, the self-cleavage worked out at 0.73.

Consider U21C G41A, for which the self-cleavage was found to be 0.677.

Regarding U21A A51G, the self-cleavage was determined as 1.01.

For the variant U21A A51C, the self-cleavage turned out to be 0.953.

Turning to U21A A51U, the self-cleavage came out at 0.952.

In the case of U21A C39U, the self-cleavage stood at 0.928.

In the case of U21A C39G, the self-cleavage worked out at 0.981.

Turning to U21A G25U, the self-cleavage was determined as 0.136.

Take U21A G25A: the self-cleavage stood at 0.244.

In the case of U21A G25C, the self-cleavage amounted to 0.249.

Take U20C G56A: the self-cleavage was 0.223.

U20C U21A: the self-cleavage worked out at 0.208.

U21C C32U: the self-cleavage was determined as 0.918.

Turning to U21C C32A, the self-cleavage was determined as 0.741.

With U21C C32G, the self-cleavage was 0.226.

As to U20G A40G, the self-cleavage came out at 0.169.

In the case of U20G A40U, the self-cleavage turned out to be 0.134.

U20G A40C: the self-cleavage turned out to be 0.243.

In the case of U21A U61A, the self-cleavage came out at 0.907.

As to U21A U61G, the self-cleavage was determined as 0.94.

Consider U20G C39U, for which the self-cleavage is 0.0993.

On to U20G C39A, for which the self-cleavage worked out at 0.169.

With U20G C39G, the self-cleavage was found to be 0.23.

On to U21A U49C, for which the self-cleavage amounted to 0.972.

For U21A U49G, the self-cleavage is 0.95.

As to U21A U49A, the self-cleavage was found to be 0.96.

On to U21C A52C, for which the self-cleavage was determined as 0.854.

With U21A, the self-cleavage is 0.979.

For U21C, the self-cleavage was 0.92.

Consider U21A C32G, for which the self-cleavage turned out to be 0.504.

Consider U20G U44G, for which the self-cleavage came to 0.168.

For U20G U21G, the self-cleavage is 0.148.

As to U20G U21A, the self-cleavage came to 0.252.

In the case of U20G U61C, the self-cleavage stood at 0.19.

Regarding U20G U61G, the self-cleavage amounted to 0.171.

For the variant U20C U38G, the self-cleavage came to 0.24.

With U20C U38A, the self-cleavage stood at 0.181.

Take U20C U38C: the self-cleavage is 0.212.

Consider U21A G50C, for which the self-cleavage came to 0.924.

Consider U21A G50A, for which the self-cleavage stood at 0.989.

Regarding U21A G68U, the self-cleavage amounted to 0.976.

Turning to U21A G68C, the self-cleavage stood at 1.02.

For the variant U20G U55C, the self-cleavage was found to be 0.148.

Consider U20G U55A, for which the self-cleavage worked out at 0.139.

For U20G U55G, the self-cleavage is 0.106.

As for U21C C27A, the self-cleavage amounted to 0.344.

On to U21C C27U, for which the self-cleavage came out at 0.138.

For the variant U20C G68A, the self-cleavage came out at 0.336.

As for U20C U61C, the self-cleavage came to 0.182.

U20C U61A: the self-cleavage was 0.236.

For U20G C27U, the self-cleavage amounted to 0.0848.

For the variant U21C A51C, the self-cleavage was determined as 0.913.

For the variant U21C A51U, the self-cleavage was found to be 0.861.

With U21C C29G, the self-cleavage was 0.247.

In the case of U21C C29U, the self-cleavage was 0.217.

Turning to U21C C39A, the self-cleavage worked out at 0.498.

U21C C39U: the self-cleavage was determined as 0.842.

As to U21A A59G, the self-cleavage stood at 1.

As for U21A A59C, the self-cleavage worked out at 0.681.

Take U20G G65U: the self-cleavage was 0.262.

Consider U20G G65A, for which the self-cleavage amounted to 0.155.

Take U21A U36G: the self-cleavage was found to be 0.272.

For U21A U36A, the self-cleavage came to 0.253.

On to U21A U36C, for which the self-cleavage came to 0.693.

Regarding U21C G47A, the self-cleavage came to 0.915.

For the variant U21A C34A, the self-cleavage was 0.708.

In the case of U21A C34U, the self-cleavage came to 0.995.

As to U21A U69A, the self-cleavage was found to be 1.01.

On to U21A U69C, for which the self-cleavage worked out at 1.06.

Take U21A U69G: the self-cleavage was found to be 1.06.

On to U20G C32A, for which the self-cleavage worked out at 0.218.

Take U20G C32U: the self-cleavage worked out at 0.157.

As for U21A C22A, the self-cleavage stood at 0.132.

As to U21A C22G, the self-cleavage is 0.0886.

Take U20G G25U: the self-cleavage came to 0.185.

In the case of U20G G25A, the self-cleavage was 0.129.

In the case of U21A G56A, the self-cleavage amounted to 0.954.

Consider U21A G56C, for which the self-cleavage stood at 0.755.

In the case of U21A G56U, the self-cleavage was 0.936.

On to U21A U38C, for which the self-cleavage was 0.373.

U21A U38G: the self-cleavage was found to be 0.24.

Consider U21A U38A, for which the self-cleavage worked out at 0.276.

On to U20C U55A, for which the self-cleavage was 0.175.

For U20G G68A, the self-cleavage came out at 0.235.

For U20G G68C, the self-cleavage is 0.275.

Consider U20G C29A, for which the self-cleavage was determined as 0.198.

As for U20G C29G, the self-cleavage stood at 0.128.

On to U21C C66G, for which the self-cleavage stood at 0.744.

On to U21C C66U, for which the self-cleavage came out at 0.887.

On to U21A C29G, for which the self-cleavage is 0.445.

With U21A C29U, the self-cleavage was 0.413.

With U21A G28C, the self-cleavage was 0.193.

With U21A G28A, the self-cleavage was 0.219.

Take U20G C33A: the self-cleavage turned out to be 0.135.

As for U20G C33G, the self-cleavage stood at 0.261.

On to U21A G65C, for which the self-cleavage was 0.6.

In the case of U21A U53A, the self-cleavage stood at 0.936.

With U21A U53G, the self-cleavage is 0.863.

Consider U21A U53C, for which the self-cleavage is 0.927.

Regarding U20G C35U, the self-cleavage was determined as 0.171.

U20G C35G: the self-cleavage turned out to be 0.184.

In the case of U20G C35A, the self-cleavage is 0.218.

For U20G A23U, the self-cleavage was found to be 0.243.

Consider U20G A23C, for which the self-cleavage was found to be 0.196.

Turning to U20G A23G, the self-cleavage is 0.32.

On to U21A G58A, for which the self-cleavage was determined as 0.898.

Consider U20C G30U, for which the self-cleavage worked out at 0.153.

U20C G30C: the self-cleavage is 0.178.

On to U20C U69C, for which the self-cleavage turned out to be 0.427.

For the variant U20C U69A, the self-cleavage stood at 0.124.

Take U20C C66U: the self-cleavage was determined as 0.272.

Turning to U20G U49C, the self-cleavage was determined as 0.173.

In the case of U20G U49G, the self-cleavage was 0.27.

On to U20G U49A, for which the self-cleavage is 0.26.

With U21C A59U, the self-cleavage was 0.581.

With U21C A59G, the self-cleavage was found to be 0.928.

For U20C G65A, the self-cleavage turned out to be 0.141.

With U20G U36C, the self-cleavage came out at 0.0978.

Turning to U20G U36A, the self-cleavage was 0.13.

For U20C G47U, the self-cleavage is 0.239.

For U20C G47A, the self-cleavage was 0.243.

Turning to U20C G47C, the self-cleavage is 0.188.

Regarding U21A A52U, the self-cleavage worked out at 0.935.

As to U21A A52G, the self-cleavage was 1.01.

U21A A52C: the self-cleavage worked out at 1.03.

On to U20C G48U, for which the self-cleavage amounted to 0.242.

U20C G48A: the self-cleavage was determined as 0.189.

U20C G58U: the self-cleavage turned out to be 0.204.

Turning to U20C G58A, the self-cleavage was found to be 0.161.

On to U20C G58C, for which the self-cleavage was found to be 0.147.

As for U20G C34U, the self-cleavage amounted to 0.268.

Take U20G C34G: the self-cleavage is 0.28.

For U21A G48A, the self-cleavage came to 1.

On to U21A G48U, for which the self-cleavage amounted to 0.978.

On to U20G U64C, for which the self-cleavage came out at 0.189.

On to U21A U67A, for which the self-cleavage was 0.992.

Regarding U21A U67C, the self-cleavage was found to be 0.951.

Regarding U21C A42U, the self-cleavage stood at 0.891.

On to U21C A42G, for which the self-cleavage is 0.749.

Turning to U20G G47U, the self-cleavage amounted to 0.226.

The record behind these values is the RNAGym collection of RNA variant scans (doi:10.7554/elife.80360).
